# Measurements: patent publication US20230174642A1, “AFFINITY-MATURATED ANTI-ASIC1a ANTIBODIES” (SHANGHAITECH UNIVERSITY, priority 2019, published 2023)
# Positions count from the first letter of the chain named.
# B1: ASC06-03-IgG1 (antibody, V domains shown)
# VH: QVQLQQSGGGLVQPGGSLRLSCAASGFTFSSYAMSWVRQAPGKGLEWVSAISGSGGSTYYADSVKGRFTISRDNSKNTLYLQMNSLRAEDTAVYYCAKDSFYGRAKGSWGQGTLVTVSS
# VL: QSALTQPASVSGSPGQSITISCTGTSSDVGAYNYVSWYQQQPGKAPKLMIYGVSNRPSGVSNRFSGSKSGNAASLTISGLQAEDEADYYCSSYTSSSTYVFGTGTKLTVLG
# notes: Full length IgG1
# B2: ASC06-01-IgG1 (antibody, V domains shown)
# VH: B1 VH with F101Y, Y102F, R104Y, A105S, S108D
# VL: B1 VL
# notes: Full length IgG1
# B3: ASC06-02-IgG1 (antibody, V domains shown)
# VH: B1 VH with Y102F
# VL: B1 VL
# notes: Full length IgG1
# B4: ASC06-04-IgG1 (antibody, V domains shown)
# VH: B1 VH with S108V
# VL: B1 VL
# notes: Full length IgG1
# B5: ASC06-IgG1 (antibody, V domains shown)
# VH: B1 VH with R104Y, A105S, S108D
# VL: B1 VL
# notes: Tested as full length IgG1; also called WT antibody ASC06-IgG1; parental ASC06-IgG1 antibody
# B6: ASC06-01-IgG1: affinity-matured ASC06 derivative, VH-CDR3 DSYFGYSKGD (SEQ ID NO: 11) (antibody, V domains shown)
# VH: B1 VH with F101Y, Y102F, R104Y, A105S, S108D
# VL: B1 VL
# B7: ASC06-02-IgG1: affinity-matured ASC06 derivative, VH-CDR3 DSFFGRAKGS (SEQ ID NO: 13) (antibody, V domains shown)
# VH: B1 VH with Y102F
# VL: B1 VL
# B8: ASC06-03-IgG1: affinity-matured ASC06 derivative, VH-CDR3 DSFYGRAKGS (SEQ ID NO: 15) (antibody, V domains shown)
# VH: B1 VH
# VL: B1 VL
# B9: ASC06-04-IgG1: affinity-matured ASC06 derivative, VH-CDR3 DSFYGRAKGV (SEQ ID NO: 17) (antibody, V domains shown)
# VH: B1 VH with S108V
# VL: B1 VL
# B10: ASC06-IgG1: parental (WT) ASIC1a-specific antagonist antibody; VL SEQ ID NO: 2, VH SEQ ID NO: 7, VH-CDR3 DSFYGYSKGD (antibody, V domains shown)
# VH: B1 VH with R104Y, A105S, S108D
# VL: B1 VL
# modifications: IgG1 constant regions; Amino acid sequence VH of ASC06; Amino acid sequence VL of ASC06
# Experiments:
# [1] = molecular target: T1, hASIC1a-mCherry fusion on a stable cell line (human, UniProt P78348 1-528); experiment: cell-based or functional assay
# T1 sequence (looked up): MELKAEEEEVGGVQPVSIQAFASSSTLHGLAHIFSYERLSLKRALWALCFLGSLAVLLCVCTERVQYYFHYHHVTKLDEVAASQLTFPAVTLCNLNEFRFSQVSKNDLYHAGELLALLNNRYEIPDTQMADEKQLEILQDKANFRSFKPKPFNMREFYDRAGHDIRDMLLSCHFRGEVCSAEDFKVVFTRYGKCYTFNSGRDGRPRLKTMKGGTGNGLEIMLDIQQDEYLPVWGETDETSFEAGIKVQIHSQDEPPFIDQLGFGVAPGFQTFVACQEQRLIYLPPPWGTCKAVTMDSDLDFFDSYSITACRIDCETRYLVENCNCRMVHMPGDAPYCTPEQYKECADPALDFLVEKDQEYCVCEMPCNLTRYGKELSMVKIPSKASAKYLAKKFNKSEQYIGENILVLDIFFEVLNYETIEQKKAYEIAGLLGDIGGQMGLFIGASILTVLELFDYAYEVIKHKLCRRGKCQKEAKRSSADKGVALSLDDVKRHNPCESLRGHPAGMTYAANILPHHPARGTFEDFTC
# [2] = molecular target: T2, recombinant extracellular domain of hASIC1a (hASIC1a-ECD) (human, UniProt P78348 67-427, limits assumed); experiment: SPR, Biacore T200, hASIC1a-ECD immobilized, IgG1 as analyte
# T2 construct: extracellular domain; ASIC1a is one splice isoform of it; also called trimeric ectodomain of hASIC1a
# T2 sequence (looked up): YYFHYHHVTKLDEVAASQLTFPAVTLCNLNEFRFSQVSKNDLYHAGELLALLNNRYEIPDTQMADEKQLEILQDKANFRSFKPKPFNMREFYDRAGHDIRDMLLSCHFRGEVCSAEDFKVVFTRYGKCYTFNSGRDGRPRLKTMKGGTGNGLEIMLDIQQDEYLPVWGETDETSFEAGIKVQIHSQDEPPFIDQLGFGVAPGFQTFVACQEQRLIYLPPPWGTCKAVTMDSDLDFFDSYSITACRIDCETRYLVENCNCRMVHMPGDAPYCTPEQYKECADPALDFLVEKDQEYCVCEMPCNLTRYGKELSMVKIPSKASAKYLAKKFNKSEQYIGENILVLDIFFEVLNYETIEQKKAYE
# Description: (§1) Binding affinities of four affinity-matured antibodies in IgG1 format (ASC06-01-IgG1 through ASC06-04-IgG1) to the recombinant extracellular domain of hASIC1a(hASIC1a-ECD) were measured using the Biacore T200™ (GE Healthcare). The ASC06-IgG1 antibody was used as a positive control. All manipulations were followed by the user guide of manufacturer. Briefly, was hASIC1a was immobilized, and serial dilutions of the indicated antibodies were added as analytes. The analysis of the results were processed in BIA Evaluation Software™.
# [3] = molecular target: T3, recombinant extracellular domain of hASIC1a (hASIC1a-ECD) (Homo sapiens, UniProt P78348); experiment: Biacore T200 binding affinity measurement; conditions: Biacore T200, hASIC1a immobilized, antibody as analyte
# T3 construct: recombinant extracellular domain of hASIC1a(hASIC1a-ECD)
# T3 sequence (P78348 67-427 limits assumed): T2 sequence (looked up)
# Description: as §1
# [4] = molecular target: T4, human ASIC1b (hASIC1b-eYFP) (Homo sapiens, UniProt P78348); experiment: FACS-based binding assay, transiently transfected CHO-K1 cells (isotype selectivity)
# T4 construct: expressed in transfected cells; host or cells: CHO-K1 (transient)
# T4 sequence (P78348 1-562 isoform P78348-3): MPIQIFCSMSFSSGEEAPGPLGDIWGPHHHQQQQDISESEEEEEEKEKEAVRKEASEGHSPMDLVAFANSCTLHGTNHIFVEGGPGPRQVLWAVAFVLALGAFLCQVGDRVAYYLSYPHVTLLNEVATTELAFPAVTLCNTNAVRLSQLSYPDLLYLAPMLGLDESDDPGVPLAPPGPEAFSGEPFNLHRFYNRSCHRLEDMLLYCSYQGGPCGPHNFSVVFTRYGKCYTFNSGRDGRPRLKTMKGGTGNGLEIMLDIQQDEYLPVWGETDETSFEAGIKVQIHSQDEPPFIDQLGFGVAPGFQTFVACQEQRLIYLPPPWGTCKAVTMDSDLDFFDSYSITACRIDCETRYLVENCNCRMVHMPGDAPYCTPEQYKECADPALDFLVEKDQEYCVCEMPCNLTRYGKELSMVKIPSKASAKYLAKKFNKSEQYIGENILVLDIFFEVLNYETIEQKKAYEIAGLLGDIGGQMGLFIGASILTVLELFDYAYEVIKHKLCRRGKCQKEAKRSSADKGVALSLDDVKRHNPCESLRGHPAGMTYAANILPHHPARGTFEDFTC
# Description: (§2) To examine the ASIC isotype selectivity of ASC06-IgG1 affinity-matured antibodies, plasmids encoding fusion proteins of eYFP with isoforms of […] were constructed. These plasmids included those encoding human ASIC1b (hASIC1b-eYFP), human ASIC2a (hASIC2a-eYFP), and human ASIC3a (hASIC3a-eYFP). CHO-K1 cells were transiently transfected with these plasmids and used in a FACS-based binding assay disclosed herein. Binding of ASC06-IgG1 to CHO-K1 cells expressing human ASIC1a-eYFP (hASIC1a-eYFP) was used as a positive control (data not shown and FIG. 2), and an isotype control was used as a negative control for binding (NC).
# [5] = molecular target: T5, human ASIC2a (hASIC2a-eYFP) (Homo sapiens, UniProt Q16515); experiment: as above
# T5 construct: expressed in transfected cells; host or cells: CHO-K1 (transient)
# T5 sequence (Q16515 1-512): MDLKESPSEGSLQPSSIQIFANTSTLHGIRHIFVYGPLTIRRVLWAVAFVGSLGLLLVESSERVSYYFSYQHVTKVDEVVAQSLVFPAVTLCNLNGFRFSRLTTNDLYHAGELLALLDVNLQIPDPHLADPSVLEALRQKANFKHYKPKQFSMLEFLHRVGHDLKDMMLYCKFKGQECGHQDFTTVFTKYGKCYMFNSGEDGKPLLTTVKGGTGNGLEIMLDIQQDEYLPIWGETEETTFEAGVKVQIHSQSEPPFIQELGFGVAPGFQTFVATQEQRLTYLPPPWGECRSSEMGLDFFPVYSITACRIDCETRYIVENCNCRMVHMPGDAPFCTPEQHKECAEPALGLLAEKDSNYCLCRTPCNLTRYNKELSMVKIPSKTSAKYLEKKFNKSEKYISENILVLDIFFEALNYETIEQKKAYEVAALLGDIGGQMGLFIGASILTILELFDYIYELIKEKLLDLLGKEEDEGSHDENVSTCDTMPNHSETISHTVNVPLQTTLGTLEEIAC
# Description: as §2
Molecule,"IC50 for the inhibition of acid induced ASIC1a-mediated calcium influx, FLIPR-based assay [1] [nM]",Kd [2] [nM],koff [2] [s⁻¹],kon [2] [M⁻¹ s⁻¹],Ka [3] [M⁻¹ s⁻¹],binding to the hASIC1b isoform [4],binding to the hASIC2a isoform [5]
B1,2.61,0.12,8.2e-05,680000,,,
B2,2.24,0.1,0.000997,9.7e+06,,,
B3,1.97,0.0125,0.000168,1.3e+07,,,
B4,,0.26,0.000163,620000,,,
B5,2.11,0.28,0.0013,4.7e+06,,,
B6,,,,,9.7e+06,no detectable binding,no detectable binding
B7,,,,,1.3e+07,no detectable binding,no detectable binding
B8,,,,,680000,no detectable binding,no detectable binding
B9,,,,,620000,no detectable binding,no detectable binding
B10,,,,,4.7e+06,no detectable binding,no detectable binding
